Where no end group is shown, it is not given here. [ ]: non-standard residue; d: D form. The star is where a group is joined. Phe(4-Cl) = N[C@@H](Cc1ccc(Cl)cc1)C(=O)O; dPhe(4-Cl) = N[C@H](Cc1ccc(Cl)cc1)C(=O)O; dPhe(4-F) = N[C@H](Cc1ccc(F)cc1)C(=O)O; 2Nal = N[C@@H](Cc1ccc2ccccc2c1)C(=O)O; d2Nal = N[C@H](Cc1ccc2ccccc2c1)C(=O)O; Fmoc = O=C(OCC1c2ccccc2-c2ccccc21)*; 2Thi = N[C@@H](Cc1cccs1)C(=O)O; Cha = N[C@@H](CC1CCCCC1)C(=O)O
Key:
XIAP-inhibited caspase-3 = target: T1, XIAP-inhibited caspase-3 (Homo sapiens, UniProt P98170); assay: IAP derepression assay: Ac-DEVD-AFC hydrolysis by caspase-3 in the presence of GST-XIAP; assay type: biochemical; conditions: for LC (lowest concentration with a ratio of 2 or higher in the derepression assay): tested at 0.4, 2, 10 and 50; for reversing XIAP-mediated suppression of caspase 3: 50 μg/ml, full length XIAP
T1 construct: in a caspase derepression assay using full length XIAP; made in house; host or cells: bacteria
T1 sequence (P98170 whole entry): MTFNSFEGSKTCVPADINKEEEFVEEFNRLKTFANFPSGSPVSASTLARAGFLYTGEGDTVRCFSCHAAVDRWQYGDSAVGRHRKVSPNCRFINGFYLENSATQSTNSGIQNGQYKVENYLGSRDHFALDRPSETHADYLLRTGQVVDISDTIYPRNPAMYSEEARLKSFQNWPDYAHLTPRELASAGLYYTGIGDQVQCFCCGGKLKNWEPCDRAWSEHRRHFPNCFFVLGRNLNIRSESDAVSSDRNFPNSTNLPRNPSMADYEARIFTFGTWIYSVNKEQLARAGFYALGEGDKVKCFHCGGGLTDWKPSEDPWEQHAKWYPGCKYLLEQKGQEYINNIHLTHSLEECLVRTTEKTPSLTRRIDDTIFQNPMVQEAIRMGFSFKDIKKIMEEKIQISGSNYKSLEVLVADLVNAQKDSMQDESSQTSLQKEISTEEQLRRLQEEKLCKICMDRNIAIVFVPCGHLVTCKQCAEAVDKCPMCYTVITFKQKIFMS
Experimental: The ratio of Vmax for hydrolysis of Ac-DEVD-AFC in the presence and absence of the candidate mixture was calculated and used to identify those that contain an agent that derepresses an IAP-inhibited caspase.
Each mixture was aliquoted in a 25 microliter volume and in duplicate to a well of a 96 well microtiter plate. […] Fluorescence of liberated AFC was immediately detected from each well for 30 minutes at 30 second intervals. The Vmax for hydrolysis of AC-DEVD-AFC from each well was measured using the softmax software package.

[1] = test system: ALVA31 prostate cancer cells; assay: ALVA31 prostate cancer cell viability (XTT dye-reduction, trypan blue); assay type: cell-based; conditions: 24 hrs; peptides 40 μM, VP-16 100 μM
Experimental: The in vivo effects of TPI 792-33 or TPI 792-35, either individually or in combination with the cytotoxic anticancer drug VP-16 (etoposide), on derepression of XIAP-inhibited caspase and viability of ALVA31 cells was determined as follows. ALVA31 prostate cancer cells were seeded onto 96 well plates (10^4 cells/well) in 100 μL RPMI containing 2.5% fetal bovine serum (FBS). […] After another 24 hrs-incubation, cell viability was measured by the XTT dye-reduction assay (Roche, Molecular Biochemicals; Indianapolis, Ind.) and trypan blue dye exclusion assay.

[2] = test system: NCI panel of 60 tumor cell lines; assay: NCI panel of 60 tumor cell lines, 48 hours, protein-based colorimetric assay; parameters: species or system human
Experimental: Selected polyphenylurea compounds were tested on the National Cancer Institute (NCI) panel of 60 tumor cell lines (see FIG. 28a and FIG. 29).

GST-XIAP (human) = GST-XIAP (human) (UniProt P98170); assay: cell-based or functional assay
Chain of GST-XIAP (human) (P98170 whole entry): as above

LC (lowest concentration with a ratio of 2 or higher in the derepression assay) (XIAP-inhibited caspase-3) [µg/mL]	Molecule	further results
10	(D-Nal)-(D-pClPhe)-(L-pClPhe)-(Lys-εFmoc) ([d2Nal][dPhe(4-Cl)][Phe(4-Cl)]K(Fmoc)) [TPI 792-9]	–
2	(D-Nal)-(L-Nal)-(D-Lys-εFmoc)-(Lys-εFmoc) ([d2Nal][2Nal][dK](Fmoc)K(Fmoc)) [TPI 792-17]	–
2	(D-Nal)-(L-Nal)-(L-pClPhe)-(Lys-εFmoc) ([d2Nal][2Nal][Phe(4-Cl)]K(Fmoc)) [TPI 792-15]	–
2	(D-Nal)-(Lys-εFmoc)-(L-pClPhe)-(Lys-εFmoc) ([d2Nal]K(Fmoc)[Phe(4-Cl)]K(Fmoc)) [TPI 792-3]	–
2	(L-ThiAla)-(D-pClPhe)-(L-pClPhe)-(Lys-εFmoc) ([2Thi][dPhe(4-Cl)][Phe(4-Cl)]K(Fmoc)) [TPI 792-27]	–
2	(L-ThiAla)-(Lys-εFmoc)-(D-Nal)-(Lys-εFmoc) ([2Thi]K(Fmoc)[d2Nal]K(Fmoc)) [TPI 792-19]	–
2	(L-ThiAla)-(Lys-εFmoc)-(L-pClPhe)-(pF-D-F) ([2Thi]K(Fmoc)[Phe(4-Cl)][dPhe(4-F)]) [TPI 792-22]	–

Further lines, the molecule ahead of its results:

Molecule	LC (lowest concentration with a ratio of 2 or higher in the derepression assay) (XIAP-inhibited caspase-3) [µg/mL]	further results
O=C(NC[C@@H](CC1CCCCC1)N(C[C@@H]1CCCN1CCC12CC3CC(CC(C3)C1)C2)C(=O)Nc1ccccc1)Nc1ccccc1 [TPI 1396-35]	–	Activity* (relative caspase-3 activity: Vmax in the presence of compound / Vmax of controls having caspase-3 and XIAP) (XIAP-inhibited caspase-3; XIAP derepression assay): 2.5
COc1cc([C@@H]2c3cc4c(cc3[C@@H](O[C@@H]3O[C@@H]5CO[C@@H](C)O[C@H]5[C@H](O)[C@H]3O)[C@H]3COC(=O)[C@H]23)OCO4)cc(OC)c1O [VP-16, etoposide, reference compound]	–	cell viability, compound alone [1]: essentially no effect; average (mean) LD50 for the 60 cell lines [2]: 200 ± 2.5 µM
(L-Ala)-(D-Trp)-(L-Trp)-(L-ThiAla) (A[dW]W[2Thi]) [TPI 1332-47]	–	reversing XIAP-mediated suppression of caspase 3 (XIAP-inhibited caspase-3): Active
(L-Ala)-(L-Trp)-(L-Trp)-(L-ThiAla) (AWW[2Thi]) [TPI 1332-1]	–	reversing XIAP-mediated suppression of caspase 3 (XIAP-inhibited caspase-3): Active
(L-Cha)-(D-Nal)-(L-Trp)-(L-ThiAla) ([Cha][d2Nal]W[2Thi]) [TPI 1332-41]	–	reversing XIAP-mediated suppression of caspase 3 (XIAP-inhibited caspase-3): Active
H-AVPIAQK-NH2 [SMAC peptide (H-Ala-Val-Pro-Ile-Ala-Gln-Lys-NH2)]	–	Vmax(mix + casp3 + XIAP)/Vmax(casp3 + XIAP) (GST-XIAP (human)): 3.8

Source: patent US20060258581A1, “Methods and composition for derepressions of IAP-inhibited caspase” (priority 2001, published 2006)
